Paper PMC3936753

B1: RNA1/RNA2 (dsRNA)
RNA 1: GUGUAGUAAUCGUCCAUUGUGUCU
RNA 2: AGACACAAUGGACGAUUACUACAC

Experiments:
[1] = molecular target: T1, MBP-VP5 (Helicoverpa armigera cypovirus 5 …, UniProt Q3LTV8 1-380); assay: EMSA; 10 pmol protein, 0.1 pmol probe; Hill coefficient ~1.499 (0.05-0.16 uM) and ~4.972 (0.2-0.48 uM); 25 mM HEPES-KOH pH 7.5, 100 mM NaCl, 10 ul, 30 min at room temperature; 2% agarose gel
[2] = molecular target: T1, MBP-VP5; assay: EMSA; 10 pmol protein, 0.1 pmol probe; 25 mM HEPES-KOH pH 7.5, 100 mM NaCl, 10 ul, 30 min at room temperature; 2% agarose gel
[3] = molecular target: T1, MBP-VP5; assay: competition; vs HEX-RNA1, 5-100 fold excess, 2 pmol protein; 25 mM HEPES-KOH pH 7.5, 100 mM NaCl, 10 ul, 30 min at room temperature; 2% agarose gel

Row | Binder | binding result [2] | other results
1 | GUGUAGUAAUCGUCCAUUGUGUCU (ssRNA) [RNA1] |  | binding result [1]: binds
2 | B1 | binds | 
3 | GUGUAGUAAUCGUCCAUUGUGUCU (ssRNA) [RNA10] |  | binding result [3]: binds
4 | GTGTAGTAATCGTCCATTGTGTCT (ssDNA) [DNA1] | binds | 
